Substitutions are numbered along the chain they refer to.
B1: 373_B11 (antibody, V domains shown)
VH: EVQLLESGGGLVQPGGSLRLSCAASGFTFSSYSMNWVRQAPGKGLEWVANINYNSGYKGYADSVKGRFTISRDNSKNTLYLQMNSLRAEDTAVYYCARSATWHDTHLDYWGQGTLVTVSS
VL: DIQMTQSPSSLSASVGDRVTITCRASQSILSYLNWYQQKPGKAPKLLIYAATSRASGVPSRFSGSGSGTDFTLTISSLQPEDFATYYCQQSYDNPLTFGGGTKVEIK
B2: 373_E06 (antibody, V domains shown)
VH: B1 VH with S30D, N50G, G59S
VL: B1 VL with S31R, R54L, A55H
B3: 375_A06 (antibody, V domains shown)
VH: B1 VH with N50G
VL: B1 VL with S31T, L33V, T52S, R54L, A55Q, D93S, N94T
B4: 373_G05 (antibody, V domains shown)
VH: B1 VH with N50G, S55G, K58T, G59S
VL: B1 VL with R54L, D93E, N94L
B5: 373_E02 (antibody, V domains shown)
VH: B1 VH with S30D, S33G, N35H, A49S, N50G, S55G
VL: not shown
B6: 376_B01 (antibody, V domains shown)
VH: B1 VH with S30D, N50G, S55G, K58T, G59S
VL: B1 VL with S31T, L33V, L47V, D93N, N94L
B7: 374_A11 (antibody, V domains shown)
VH: B1 VH with S31D
VL: B1 VL with L33V, L47V, D93S, N94S
B8: 376_A06 (antibody, V domains shown)
VH: B1 VH with S30D, A49S, N50G, K58T, G59S, H106A
VL: B1 VL with L47V, A50Y, A51V, T52S, S53N
B9: 375_C12 (antibody, V domains shown)
VH: B1 VH with S55G, K58T
VL: B1 VL with S31T, N94L
B10: 375_G07 (antibody, V domains shown)
VH: B1 VH with S30D, N50G, K58T, G59S
VL: B1 VL with L47V, R54L, N94L
B11: 374_C11 (antibody, V domains shown)
VH: B1 VH with N50G
VL: B1 VL with S31T, D93E, N94S
B12: 374_C05 (antibody, V domains shown)
VH: B1 VH with S30D, N50G, G59S
VL: B1 VL with L30I, S31R, L47V

Target: Human ACVR2A (on cells) (human, UniProt P27037 20-513)
Experiment: cell-based or functional assay

Sequence of Human ACVR2A (on cells) (P27037 20-513): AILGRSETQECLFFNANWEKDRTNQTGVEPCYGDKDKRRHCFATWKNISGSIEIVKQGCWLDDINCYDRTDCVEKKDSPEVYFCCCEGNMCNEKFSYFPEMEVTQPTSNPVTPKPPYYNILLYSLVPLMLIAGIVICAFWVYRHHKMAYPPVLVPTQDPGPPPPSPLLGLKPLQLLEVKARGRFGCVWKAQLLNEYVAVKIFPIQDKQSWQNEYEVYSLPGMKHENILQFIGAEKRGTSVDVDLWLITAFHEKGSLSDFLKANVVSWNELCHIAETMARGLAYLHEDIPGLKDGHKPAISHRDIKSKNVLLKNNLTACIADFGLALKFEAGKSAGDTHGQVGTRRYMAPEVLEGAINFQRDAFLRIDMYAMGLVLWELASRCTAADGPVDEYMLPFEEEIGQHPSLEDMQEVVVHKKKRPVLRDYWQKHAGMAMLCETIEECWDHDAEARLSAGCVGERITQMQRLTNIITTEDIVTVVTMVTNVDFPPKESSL

Binder	Phospho-SMAD3 Human Skeletal Muscle GDF8 (AlphaLisa, primary human myotubes)
B1	0.0008
B2	0.0005
B3	0.0318
B4	0.0059
B5	0.0049
B6	0.0086
B7	0.0086
B8	0.0043
B9	0.0063
B10	0.0112
B11	0.0266
B12	0.0124

Source: US20210380703A1 (RIGEL PHARMACEUTICALS, published 2021)
